In patent publication US20230265179A1 (TWIST BIOSCIENCE, published 2023):

T1: CD40L over-expressed on Expi293 cells (UniProt P29965 1-261, limits assumed)
T1 construct: whole, on cells; also called cytokine over-expressing Expi293 cells
T1 sequence (looked up): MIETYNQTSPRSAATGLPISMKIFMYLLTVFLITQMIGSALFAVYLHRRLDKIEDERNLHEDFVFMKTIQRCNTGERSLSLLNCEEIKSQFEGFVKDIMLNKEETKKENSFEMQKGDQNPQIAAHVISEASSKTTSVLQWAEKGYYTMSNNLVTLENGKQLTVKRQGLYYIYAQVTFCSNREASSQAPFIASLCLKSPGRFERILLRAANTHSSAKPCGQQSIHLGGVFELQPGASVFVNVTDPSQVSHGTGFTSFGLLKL

B1: CD40L-167 (antibody, V domains shown)
VH: EVQLLESGGGLVQPGGSLRLSCAASGGYNFRDYMHWVRQAPGKGLEWVSSISNSGGSTYYADSVKGRFTISRDNSKNTLYLQMNSLRAEDTAVYYCAKNLGQGFDYWGQGTLVTVSS
VL: DIQMTQSPSSLSASVGDRVTITCRASESVEYHGTSLMHWYQQKPGKAPKLLIYGTSNLESGVPSRFSGSGSGTDFTLTISSLQPEDFATYYCQQVVWRPFTFGQGTKVEIK
notes: IgG2
B2: CD40L-173 (antibody, V domains shown)
VH: EVQLLESGGGLVQPGGSLRLSCAASGGYNFRDYMHWVRQAPGKGLEWVATISGGGINTYYPDSVKGRFTISRDNSKNTLYLQMNSLRAEDTAVYYCAKDLGQGFDYWGQGTLVTVSS
VL: DIQMTQSPSSLSASVGDRVTITCQSSQSVYSNNELSWYQQKPGKAPKLLIYGRNKRPSGVPSRFSGSGSGTDFTLTISSLQPEDFATYYCSQGTHVPPTFGQGTKVEIK
notes: IgG2
B3: CD40L-183 (antibody, V domains shown)
VH: EVQLLESGGGLVQPGGSLRLSCAASGGYNFRDYMHWVRQAPGKGLEWVSSIVSSGGLTLYADSVKGRFTISRDNSKNTLYLQMNSLRAEDTAVYYCAKDLGQGFDYWGQGTLVTVSS
VL: DIQMTQSPSSLSASVGDRVTITCTGDKLAEKYVSWYQQKPGKAPKLLIYQNDKRPSGVPSRFSGSGSGTDFTLTISSLQPEDFATYYCQQSYSRPYTFGQGTKVEIK
notes: IgG2
B4: CD40L-166 (antibody, V domains shown)
VH: EVQLLESGGGLVQPGGSLRLSCAASGFDFSDYEMSWVRQAPGKGLEWVSSITSEGGSTYYADSVKGRFTISRDNSKNTLYLQMNSLRAEDTAVYYCAKPDVLFDYWGQGTLVTVSS
VL: DIQMTQSPSSLSASVGDRVTITCRASQSIISYVNWYQQKPGKAPKLLIYGASNLHSGVPSRFSGSGSGTDFTLTISSLQPEDFATYYCQQSYSTPTFGQGTKVEIK
notes: IgG2
B5: CD40L-169 (antibody, V domains shown)
VH: EVQLLESGGGLVQPGGSLRLSCAASGFDFSDYEMSWVRQAPGKGLEWVSSITSEGGSTYYADSVKGRFTISRDNSKNTLYLQMNSLRAEDTAVYYCAKPDVLFDYWGQGTLVTVSS
VL: DIQMTQSPSSLSASVGDRVTITCSGDKLGDKYAYWYQQKPGKAPKLLIYFTSTLAAGVPSRFSGSGSGTDFTLTISSLQPEDFATYYCQQSYSSAPTFGQGTKVEIK
notes: IgG2
B6: CD40L-174 (antibody, V domains shown)
VH: EVQLLESGGGLVQPGGSLRLSCAASGFDFSDYEMSWVRQAPGKGLEWVSSITSEGGSTYYADSVKGRFTISRDNSKNTLYLQMNSLRAEDTAVYYCAKPGRLFDYWGQGTLVTVSS
VL: DIQMTQSPSSLSASVGDRVTITCRASESVEYHGTSLMHWYQQKPGKAPKLLIYGRNKRPSGVPSRFSGSGSGTDFTLTISSLQPEDFATYYCQAWDRDTGVFGQGTKVEIK
notes: IgG2
B7: CD40L-177 (antibody, V domains shown)
VH: EVQLLESGGGLVQPGGSLRLSCAASGFTFASYEMTWVRQAPGKGLEWVSSITSEGGSTYYADSVKGRFTISRDNSKNTLYLQMNSLRAEDTAVYYCAKPDVLFDYWGQGTLVTVSS
VL: DIQMTQSPSSLSASVGDRVTITCRASQDVSSGVAWYQQKPGKAPKLLIYDASNLQSGVPSRFSGSGSGTDFTLTISSLQPEDFATYYCSQSTRVPPTFGQGTKVEIK
notes: IgG2
B8: CD40L-164 (antibody, V domains shown)
VH: EVQLLESGGGLVQPGGSLRLSCAASGFDFSDYEMSWVRQAPGKGLEWVSSITSEGGSTYYADSVKGRFTISRDNSKNTLYLQMNSLRAEDTAVYYCAKPDVLFDYWGQGTLVTVSS
VL: DIQMTQSPSSLSASVGDRVTITCRASSSVSYMHWYQQKPGKAPKLLIYAASDLESGVPSRFSGSGSGTDFTLTISSLQPEDFATYYCSQSTHVPTFGQGTKVEIK
notes: IgG2
B9: CD40L-178 (antibody, V domains shown)
VH: EVQLLESGGGLVQPGGSLRLSCAASGFTFEDYQMGWVRQAPGKGLEWVSSITSEGGSTYYADSVKGRFTISRDNSKNTLYLQMNSLRAEDTAVYYCAKPGRDFDYWGQGTLVTVSS
VL: DIQMTQSPSSLSASVGDRVTITCRASQPIVRNLRWYQQKPGKAPKLLIYGASSLESGVPSRFSGSGSGTDFTLTISSLQPEDFATYYCLQNVANPATFGQGTKVEIK
notes: IgG2
B10: CD40L-185 (antibody, V domains shown)
VH: EVQLLESGGGLVQPGGSLRLSCAASGFDFSDYEMSWVRQAPGKGLEWVSSITSEGGSTYYADSVKGRFTISRDNSKNTLYLQMNSLRAEDTAVYYCAKPDQFLDYWGQGTLVTVSS
VL: DIQMTQSPSSLSASVGDRVTITCRASQTIERRLNWYQQKPGKAPKLLIYGTTSLESGVPSRFSGSGSGTDFTLTISSLQPEDFATYYCHHWHHNPTHHETNVFGQGTKVEIK
notes: IgG2
B11: CD40L-172 (antibody, V domains shown)
VH: EVQLLESGGGLVQPGGSLRLSCAASGFDFSDYEMSWVRQAPGKGLEWVSSITSEGGSTYYADSVKGRFTISRDNSKNTLYLQMNSLRAEDTAVYYCAKPDVLFDYWGQGTLVTVSS
VL: DIQMTQSPSSLSASVGDRVTITCKASQHVITHVTWYQQKPGKAPKLLIYGTSDLQSGVPSRFSGSGSGTDFTLTISSLQPEDFATYYCQQSNSWPYTFGQGTKVEIK
notes: IgG2
B12: CD40L-171 (antibody, V domains shown)
VH: EVQLLESGGGLVQPGGSLRLSCAASGFDFSDYEMSWVRQAPGKGLEWVSSITSEGGSTYYADSVKGRFTISRDNSKNTLYLQMNSLRAEDTAVYYCAKPDQFFDYWGQGTLVTVSS
VL: DIQMTQSPSSLSASVGDRVTITCRASSSVSYMHWYQQKPGKAPKLLIYQNDKRPSGVPSRFSGSGSGTDFTLTISSLQPEDFATYYCQQHYSPSHTFGQGTKVEIK
notes: IgG2
B13: CD40L-186 (antibody, V domains shown)
VH: EVQLLESGGGLVQPGGSLRLSCAASGFDFSDYEMSWVRQAPGKGLEWVSSITSEGGSTYYADSVKGRFTISRDNSKNTLYLQMNSLRAEDTAVYYCAKPDVLFDYWGQGTLVTVSS
VL: DIQMTQSPSSLSASVGDRVTITCRASQGVRTSLAWYQQKPGKAPKLLIYENNNRPSGVPSRFSGSGSGTDFTLTISSLQPEDFATYYCSQSTHVPPTFGQGTKVEIK
notes: IgG2
B14: CD40L-168 (antibody, V domains shown)
VH: EVQLLESGGGLVQPGGSLRLSCAASGFDFSDYEMSWVRQAPGKGLEWVSSITSEGGSTYYADSVKGRFTISRDNSKNTLYLQMNSLRAEDTAVYYCAKPDVLFDYWGQGTLVTVSS
VL: DIQMTQSPSSLSASVGDRVTITCSGDNLGDKYVHWYQQKPGKAPKLLIYGKNIRPSGVPSRFSGSGSGTDFTLTISSLQPEDFATYYCQSGSSSANAVFGQGTKVEIK
notes: IgG2
B15: CD40L-165 (antibody, V domains shown)
VH: EVQLLESGGGLVQPGGSLRLSCAASGFDFSDYEMSWVRQAPGKGLEWVSSITSEGGSTYYADSVKGRFTISRDNSKNTLYLQMNSLRAEDTAVYYCAKPDVLFDYWGQGTLVTVSS
VL: DIQMTQSPSSLSASVGDRVTITCRTSQDISNYLNWYQQKPGKAPKLLIYGASTLQSGVPSRFSGSGSGTDFTLTISSLQPEDFATYYCQQSYDNPLTFGQGTKVEIK
notes: IgG2
B16: CD40L-179 (antibody, V domains shown)
VH: EVQLLESGGGLVQPGGSLRLSCAASGFDFSDYEMSWVRQAPGKGLEWVSSITSEGGSTYYADSVKGRFTISRDNSKNTLYLQMNSLRAEDTAVYYCAKPDVLFDYWGQGTLVTVSS
VL: DIQMTQSPSSLSASVGDRVTITCRASQSILSYLNWYQQKPGKAPKLLIYGTSKLASGVPSRFSGSGSGTDFTLTISSLQPEDFATYYCQSYDNDFYGTVFGQGTKVEIK
notes: IgG2
B17: CD40L-191 (antibody, V domains shown)
VH: EVQLLESGGGLVQPGGSLRLSCAASGFDFSDYEMSWVRQAPGKGLEWVSSITSEGGSTYYADSVKGRFTISRDNSKNTLYLQMNSLRAEDTAVYYCAKPDVLFDYWGQGTLVTVSS
VL: DIQMTQSPSSLSASVGDRVTITCSGNKLGDKYASWYQQKPGKAPKLLIYDTSKVASGVPSRFSGSGSGTDFTLTISSLQPEDFATYYCQQSYETPLTFGQGTKVEIK
notes: IgG2
B18: CD40L-180 (antibody, V domains shown)
VH: EVQLLESGGGLVQPGGSLRLSCAASGFDFSDYEMSWVRQAPGKGLEWVSSITSEGGSTYYADSVKGRFTISRDNSKNTLYLQMNSLRAEDTAVYYCAKPDVLFDYWGQGTLVTVSS
VL: DIQMTQSPSSLSASVGDRVTITCRASQSILSYLNWYQQKPGKAPKLLIYGASSLESGVPSRFSGSGSGTDFTLTISSLQPEDFATYYCQQTYDTPLTFGQGTKVEIK
notes: IgG2
B19: CD40L-175 (antibody, V domains shown)
VH: EVQLLESGGGLVQPGGSLRLSCAASGFDFSDYEMSWVRQAPGKGLEWVSSITSEGGSTYYADSVKGRFTISRDNSKNTLYLQMNSLRAEDTAVYYCAKPDKDFDYWGQGTLVTVSS
VL: DIQMTQSPSSLSASVGDRVTITCRASQTIGDYLNWYQQKPGKAPKLLIYDASNLQSGVPSRFSGSGSGTDFTLTISSLQPEDFATYYCQQSYELPLTFGQGTKVEIK
notes: IgG2
B20: CD40L-162 (antibody, V domains shown)
VH: EVQLLESGGGLVQPGGSLRLSCAASGGYNFRDYMHWVRQAPGKGLEWVAEIRNKANNHATKYADSVKGRFTISRDNSKNTLYLQMNSLRAEDTAVYYCAKNLGQGFDYWGQGTLVTVSS
VL: DIQMTQSPSSLSASVGDRVTITCRTSQDISNYLNWYQQKPGKAPKLLIYATSNLASGVPSRFSGSGSGTDFTLTISSLQPEDFATYYCQQSYSSAPMFGQGTKVEIK
notes: IgG2

The binders below were run against T1, CD40L over-expressed on Expi293 cells (assay: flow cytometry, 100 nM antibody, CD40L-Expi293 vs parent Expi293 cells;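 further: ratio is the mean fluorescence intensity on CD40L-overexpressing Expi293 cells divided by the mean fluorescence intensity on parental Expi293 cells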).
Description: All incubations and washes were in buffer containing PBS+1% BSA. MFI Ratio is defined by the mean fluorescence intensity (MFI) of the cytokine over-expressing Expi293 cell over the Expi293 parent cell. […] EC50 was calculated in GraphPad Prism.

Binder	100 nM FACS (MFI Ratio) [ratio]
B1	1.4
B2	0.4
B3	3.6
B4	1.1
B5	0.4
B6	0.4
B7	8.9
B8	0.4
B9	6.4
B10	4.5
B11	0.5
B12	0.4
B13	2.7
B14	0.2
B15	0.5
B16	3.1
B17	9.7
B18	4.3
B19	0.4
B20	0.3
